From patent US12031137B2, “Compositions comprising SASP modulators and senescence attenuators and uses thereof for modulating cellular senescence” (RSEM, LIMITED PARTNERSHIP, priority 2016, dated 2024)
Positions count from the first letter of the chain named. Names and notes keep the numbering of the source.

T1: human VEGF165 (Homo sapiens, UniProt P15692)
T1 construct: made in house; host or cells: HEK293T
T1 sequence (P15692 27-191 isoform P15692-4): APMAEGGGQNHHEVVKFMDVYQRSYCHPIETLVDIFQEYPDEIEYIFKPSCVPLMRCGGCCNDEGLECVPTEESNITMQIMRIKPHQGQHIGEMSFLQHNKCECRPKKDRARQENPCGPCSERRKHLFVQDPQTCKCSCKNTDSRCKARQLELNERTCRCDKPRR

B1: Trap AJ: NRP1 trap a2b1b2c, aa about 22-26, 143-630 and 701-856; SEQ ID NOs 59/60 (protein)
chain: MERGLPLLCAVLALVLAPAGAFRNDKRGPECSQNYTTPSGVIKSPGFPEKYPNSLECTYIVFAPKMSEIILEFESFDLEPDSNPPGGMFCRYDRLEIWDGFPDVGPHIGRYCGQKTPGRIRSSSGILSMVFYTDSAIAKEGFSANYSVLQSSVSEDFKCMEALGMESGEIHSDQITASSQYSTNWSAERSRLNYPENGWTPGEDSYREWIQVDLGLLRFVTAVGTQGAISKETKKKYYVKTYKIDVSSNGEDWITIKEGNKPVLFQGNTNPTDVVVAVFPKPLITRFVRIKPATWETGISMRFEVYGCKITDYPCSGMLGMVSGLISDSQITSSNQGDRNWMPENIRLVTSRSGWALPPAPHSYINEWLQIDLGEEKIVRGIIIQGGKHRENKVFMRKFKIGYSNNGSDWKMIMDDSKRKAKSFEGNNNYDTPELRTFPALSTRFIRIYPERATHGGLGLRMELLGCEVEAPTAGPTTPNGNLVDECDDDQANCHSGTGDDFQLTGGTTVLATEKPTVIDSTIQSEFPTYGFNCEFGWGSHKTFCHWEHDNHVQLKWSVLTSKTGPIQDHTGDGNFIYSQADENQKGKVARLVSPVVYSQNSAHCMTFWYHMSGSHVGTLRVKLRYQKPEEYDQLVWMAIGHQGDHWKEGRVLLHKSLKLYQVIFEGEIGKGNLGGIAVDDISINNHISQEDCAKPADLDKKNPEIKIDETGSTPGYEGEGEGDKNISRKPGNVLKTLDPRSGSKENLYFQG
B2: Trap Z: NRP1 trap a1a2-b1b2-c, aa about 22-856, E319K, D320K; SEQ ID NOs 71/72 (protein)
chain: FRNDKCGDTIKIESPGYLTSPGYPHSYHPSEKCEWLIQAPDPYQRIMINFNPHFDLEDRDCKYDYVEVFDGENENGHFRGKFCGKIAPPPVVSSGPFLFIKFVSDYETHGAGFSIRYELFKRGPECSQNYTTPSGVIKSPGFPEKYPNSLECTYIVFAPKMSEIILEFESFDLEPDSNPPGGMFCRYDRLEIWDGFPDVGPHIGRYCGQKTPGRIRSSSGILSMVFYTDSAIAKEGFSANYSVLQSSVSEDFKCMEALGMESGEIHSDQITASSQYSTNWSAERSRLNYPENGWTPGKKSYREWIQVDLGLLRFVTAVGTQGAISKETKKKYYVKTYKIDVSSNGEDWITIKEGNKPVLFQGNTNPTDVVVAVFPKPLITRFVRIKPATWETGISMRFEVYGCKITDYPCSGMLGMVSGLISDSQITSSNQGDRNWMPENIRLVTSRSGWALPPAPHSYINEWLQIDLGEEKIVRGIIIQGGKHRENKVFMRKFKIGYSNNGSDWKMIMDDSKRKAKSFEGNNNYDTPELRTFPALSTRFIRIYPERATHGGLGLRMELLGCEVEAPTAGPTTPNGNLVDECDDDQANCHSGTGDDFQLTGGTTVLATEKPTVIDSTIQSEFPTYGFNCEFGWGSHKTFCHWEHDNHVQLKWSVLTSKTGPIQDHTGDGNFIYSQADENQKGKVARLVSPVVYSQNSAHCMTFWYHMSGSHVGTLRVKLRYQKPEEYDQLVWMAIGHQGDHWKEGRVLLHKSLKLYQVIFEGEIGKGNLGGIAVDDISINNHISQEDCAKPADLDKKNPEIKIDETGSTPGYEGEGEGDKNISRKPGNVLKTLDPRSGSKENLYFQG
B3: Trap AC: NRP1 trap a1a2-b1b2-c, aa about 22-856, D320K; SEQ ID NOs 75/76 (protein)
chain: B2 chain with K298E
B4: Trap AB: NRP1 trap a1a2-b1b2-c, aa about 22-856, E348K, S346A; SEQ ID NOs 73/74 (protein)
chain: B2 chain with K298E, K299D, S325A, E327K
B5: Trap AK: NRP1 trap a2b1b2, aa about 22-26 and 143-583; SEQ ID NOs 61/62 (protein)
chain: MERGLPLLCAVLALVLAPAGAFRNDKRGPECSQNYTTPSGVIKSPGFPEKYPNSLECTYIVFAPKMSEIILEFESFDLEPDSNPPGGMFCRYDRLEIWDGFPDVGPHIGRYCGQKTPGRIRSSSGILSMVFYTDSAIAKEGFSANYSVLQSSVSEDFKCMEALGMESGEIHSDQITASSQYSTNWSAERSRLNYPENGWTPGEDSYREWIQVDLGLLRFVTAVGTQGAISKETKKKYYVKTYKIDVSSNGEDWITIKEGNKPVLFQGNTNPTDVVVAVFPKPLITRFVRIKPATWETGISMRFEVYGCKITDYPCSGMLGMVSGLISDSQITSSNQGDRNWMPENIRLVTSRSGWALPPAPHSYINEWLQIDLGEEKIVRGIIIQGGKHRENKVFMRKFKIGYSNNGSDWKMIMDDSKRKAKSFEGNNNYDTPELRTFPALSTRFIRIYPERATHGGLGLRMELLGCRSGSKENLYFQG
B6: Trap AS: NRP1 trap a2b1c, aa about 22-26, 143-430 and 584-856; SEQ ID NOs 65/66 (protein)
chain: MERGLPLLCAVLALVLAPAGAFRNDKRGPECSQNYTTPSGVIKSPGFPEKYPNSLECTYIVFAPKMSEIILEFESFDLEPDSNPPGGMFCRYDRLEIWDGFPDVGPHIGRYCGQKTPGRIRSSSGILSMVFYTDSAIAKEGFSANYSVLQSSVSEDFKCMEALGMESGEIHSDQITASSQYSTNWSAERSRLNYPENGWTPGEDSYREWIQVDLGLLRFVTAVGTQGAISKETKKKYYVKTYKIDVSSNGEDWITIKEGNKPVLFQGNTNPTDVVVAVFPKPLITRFVRIKPATWETGISMRFEVYGCKITDYPEVEAPTAGPTTPNGNLVDECDDDQANCHSGTGDDFQLTGGTTVLATEKPTVIDSTIQSEFPTYGFNCEFGWGSHKTFCHWEHDNHVQLKWSVLTSKTGPIQDHTGDGNFIYSQADENQKGKVARLVSPVVYSQNSAHCMTFWYHMSGSHVGTLRVKLRYQKPEEYDQLVWMAIGHQGDHWKEGRVLLHKSLKLYQVIFEGEIGKGNLGGIAVDDISINNHISQEDCAKPADLDKKNPEIKIDETGSTPGYEGEGEGDKNISRKPGNVLKTLDPRSGSKENLYFQG
B7: Trap AD: NRP1 trap a1a2b1, aa about 22-424 and 561-583, D320K; SEQ ID NOs 51/52 (protein)
chain: MERGLPLLCAVLALVLAPAGAFRNDKCGDTIKIESPGYLTSPGYPHSYHPSEKCEWLIQAPDPYQRIMINFNPHFDLEDRDCKYDYVEVFDGENENGHFRGKFCGKIAPPPVVSSGPFLFIKFVSDYETHGAGFSIRYELFKRGPECSQNYTTPSGVIKSPGFPEKYPNSLECTYIVFAPKMSEIILEFESFDLEPDSNPPGGMFCRYDRLEIWDGFPDVGPHIGRYCGQKTPGRIRSSSGILSMVFYTDSAIAKEGFSANYSVLQSSVSEDFKCMEALGMESGEIHSDQITASSQYSTNWSAERSRLNYPENGWTPGEKSYREWIQVDLGLLRFVTAVGTQGAISKETKKKYYVKTYKIDVSSNGEDWITIKEGNKPVLFQGNTNPTDVVVAVFPKPLITRFVRIKPATWETGISMRFEVYGCRSGSKENLYFQG
B8: Trap N: NRP1 trap a1a2, aa about 22-265; SEQ ID NOs 85/86 (protein)
chain: FRNDKCGDTIKIESPGYLTSPGYPHSYHPSEKCEWLIQAPDPYQRIMINFNPHFDLEDRDCKYDYVEVFDGENENGHFRGKFCGKIAPPPVVSSGPFLFIKFVSDYETHGAGFSIRYELFKRGPECSQNYTTPSGVIKSPGFPEKYPNSLECTYIVFAPKMSEIILEFESFDLEPDSNPPGGMFCRYDRLEIWDGFPDVGPHIGRYCGQKTPGRIRSSSGILSMVFYTDSAIAKEGFSANYSVLRSGSKENLYFQG
B9: Trap AR: NRP1 trap a2b1, aa about 22-26 and 143-424; SEQ ID NOs 63/64 (protein)
chain: MERGLPLLCAVLALVLAPAGAFRNDKRGPECSQNYTTPSGVIKSPGFPEKYPNSLECTYIVFAPKMSEIILEFESFDLEPDSNPPGGMFCRYDRLEIWDGFPDVGPHIGRYCGQKTPGRIRSSSGILSMVFYTDSAIAKEGFSANYSVLQSSVSEDFKCMEALGMESGEIHSDQITASSQYSTNWSAERSRLNYPENGWTPGEDSYREWIQVDLGLLRFVTAVGTQGAISKETKKKYYVKTYKIDVSSNGEDWITIKEGNKPVLFQGNTNPTDVVVAVFPKPLITRFVRIKPATWETGISMRFEVYGCRSGSKENLYFQG

Legend:
human VEGF165 = target: T1, human VEGF165; test: AP-VEGF165 binding assay on plate-coated purified traps (saturation curves, KD); details: AP-VEGF165 ligand; for Kd: read-out: VEGF165 binding (dissociation constant)
Description: Production of AP-VEGF165. the coding sequence of the human VEGF165 variant 1 (NM_001025366) was sub-cloned in the pAPtag5 vector (GenHunter), in-frame with an Alkaline Phosphatase domain (AP-VEGF165). HEK293T cells were transfected with the AP-VEGF165 construct using a polyethylenimine (PEI) transfection method. Following the overnight transfection step, cells were cultured for an additional 60 hr in serum free media (In vitrogen). The cell media were collected and concentrated on a PES device (Pierce). The concentrated AP-VEGF165 ligand was analysed on PAGE-SDS and quantified using SimplyBlue safe stain (Life technologies).
(§1) Sema 3A and AP-VEGF165 binding assays. Saturation curves for the determinations of KD of binding to SEMA 3A or VEGF165 were obtained as follow. Wells of high protein binding 96 well plates (Maxisorp, Nunc) were coated with purified traps diluted in PBS and blocked afterward with binding buffer (PBS containing 2% casein and 0.05% Tween 20). The SEMA3A-FC (R&D systems) or AP-VEGF165 ligands were diluted in binding buffer over an extensive range of concentrations and added to wells. Following an overnight incubation, wells were washed with PBS containing 0.05% tween. Bound SEMA3a-FC was detected using an HRP-linked anti-Human IgG (Biorad) and ECL substrate (Pierce). Alternatively, bound AP-VEGF165 was detected using CPD star substrate (Roche). The Chemiluminescent signal was acquired on a TECAN reader. Dissociation constant (KD) were determined by non-linear curve fitting using the Graph Pad prism software.
(§2) The relative affinity of traps of the present invention to SEMA3A and VEGF has been assessed. Traps were prepared as described in Example 8.

SEMA3A-FC = test: Sema 3A binding assay on plate-coated purified traps (saturation curves, KD); details: for Binding to SEMA3A: Table 2, Yes/No; for Kd: read-out: SEMA 3A-FC binding (dissociation constant)
Description: as §1, §2

[1] = traps coated on plate, overnight incubation

Molecule | Kd (human VEGF165) | Binding to SEMA3A (SEMA3A-FC) | Kd (SEMA3A-FC; [1]) | VEGF165 binding (dissociation constant) (human VEGF165) | SEMA 3A-FC binding (dissociation constant) (SEMA3A-FC; [1])
Trap S: NRP1 trap a1a2-b1-c, aa about 22-430 and 584-856; SEQ ID NOs 93/94 | 24.6 nM | Yes |  |  | 
Trap W: NRP1 trap a1a2-b1-c (in part), aa about 22-430 and 584-795; SEQ ID NOs 87/88 | 20.7 nM | Yes | 1.14 nM |  | 
B1 |  | Yes |  |  | 
B2 | 67 nM | Yes |  |  | 
B3 |  | Yes | 4 nM | No binding | 
B4 | 29.5 nM | No |  |  | 
B5 |  | Yes |  |  | 
B6 |  | Yes |  |  | 
B7 |  | No |  | No binding | No binding
B8 | > 250 nM | No | > 1000 nM |  | 
B9 |  | Yes |  |  | 
